Experimental findings from patent US20170022545 are described below.

Sequence of L7Ae (O29494 whole entry): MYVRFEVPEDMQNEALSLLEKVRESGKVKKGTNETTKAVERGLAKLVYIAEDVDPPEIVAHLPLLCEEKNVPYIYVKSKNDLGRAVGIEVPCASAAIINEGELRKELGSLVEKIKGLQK

One series addresses L7Ae (UniProt O29494).
Assay: not given
The settings on record: RNA microarray, 5 nM L7Ae.
In the case of hsa-mir-1-2 loop, the binding signal (log2 Cy3-Cy5+20) was 11.3. Still for that read-out and setting: the figure for hsa-mir-16-2 loop is 11.5; for hsa-mir-34a loop it is 11.3. In the case of hsa-mir-204 loop, the binding signal (log2 Cy3-Cy5+20) came out at 11.7. Turning to hsa-mir-363 loop, the binding signal (log2 Cy3-Cy5+20) worked out at 12.5.

Turning to hsa-mir-4479 loop, the binding signal (log2 Cy3-Cy5+20) was 11.3. Same read-out and setting: the figure for hsa-mir-6773 loop is 11.3; for hsa-mir-6834 loop it is 11.5; for mmu-mir-466p loop it is 13.3. Substance mmu-mir-6338 loop registered a binding signal (log2 Cy3-Cy5+20) of 11.6. On the same count and under the same terms, the result for mmu-mir-6995 loop reads 12.2; that for mmu-mir-7061 loop, 11.8. On the same count and under the same terms, the figure for mmu-mir-7220 loop is 11.5.

For a further series, the target named is U1A (Homo sapiens) (UniProt P09012). Briefly: pulldown. The settings on record: TALON beads, 4 C.
Sequence of U1A (Homo sapiens) (P09012 2-282): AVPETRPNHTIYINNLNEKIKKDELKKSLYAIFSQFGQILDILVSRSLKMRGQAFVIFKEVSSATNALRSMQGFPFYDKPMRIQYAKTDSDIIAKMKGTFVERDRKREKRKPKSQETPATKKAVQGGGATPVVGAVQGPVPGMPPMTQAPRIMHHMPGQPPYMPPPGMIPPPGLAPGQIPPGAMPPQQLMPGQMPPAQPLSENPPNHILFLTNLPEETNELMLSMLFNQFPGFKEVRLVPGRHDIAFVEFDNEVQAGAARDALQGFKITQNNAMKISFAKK
In the case of hsa-mir-378c loop, the binding signal (Cy5 intensity) came out at 8.37. Same read-out and setting: the figure for hsa-mir-412 loop is 8.95. Still for that read-out and setting: the figure for hsa-mir-422a loop is 8.78. Same read-out and setting: the result for hsa-mir-493 loop reads 8.41; that for hsa-mir-637 loop, 8.4. The substance hsa-mir-658 loop gave a binding signal (Cy5 intensity) of 8.27. Same read-out and setting: the figure for hsa-mir-1273h loop is 8.2; for hsa-mir-1302-6 loop it is 8.55; for hsa-mir-2682 loop it is 8.27.

Consider hsa-mir-3661 loop, for which the binding signal (Cy5 intensity) was 9.05. On the same count and under the same terms, the figure for hsa-mir-4315-2 loop is 8.28; for hsa-mir-4499 loop it is 8.28. On the same count and under the same terms, the result for hsa-mir-4723 loop reads 8.48; that for hsa-mir-5196 loop, 8.67; that for hsa-mir-6796 loop, 8.72. The same measure, in the same setting: the result for hsa-mir-6807 loop reads 8.28; that for hsa-mir-6845 loop, 9.06; that for hsa-mir-7848 loop, 8.69.

Another series deals with T1, Lin28A (UniProt Q9H9Z2).
T1 sequence: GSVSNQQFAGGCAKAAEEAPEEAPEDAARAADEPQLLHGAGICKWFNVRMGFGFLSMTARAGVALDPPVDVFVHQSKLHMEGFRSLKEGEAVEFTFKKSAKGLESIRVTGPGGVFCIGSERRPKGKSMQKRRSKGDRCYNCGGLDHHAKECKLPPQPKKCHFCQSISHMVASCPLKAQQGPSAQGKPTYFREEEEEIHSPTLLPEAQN
Briefly: pulldown. To be noted: TALON beads, 4 C.
The substance hsa-mir-98 loop showed a binding signal (Cy5 intensity) of 6.41. Consider hsa-mir-598 loop, for which the binding signal (Cy5 intensity) came out at 6.47. Same read-out and setting: the figure for hsa-mir-638 loop is 6.27; for hsa-mir-940 loop it is 6.33. On the same count and under the same terms, the result for hsa-mir-1233-1 loop reads 6.55. hsa-mir-1233-2 loop showed a binding signal (Cy5 intensity) of 6.43.

Substance hsa-mir-4296 loop displayed a binding signal (Cy5 intensity) of 6.29. On the same count and under the same terms, the result for hsa-mir-4453 loop reads 6.54. Same read-out and setting: the result for hsa-mir-4524b loop reads 6.33; that for hsa-mir-4730 loop, 6.28. Still for that read-out and setting: the figure for hsa-mir-5004 loop is 6.38; for hsa-mir-6758 loop it is 6.35. hsa-mir-6775 loop returned a binding signal (Cy5 intensity) of 6.44.

Take hsa-mir-6839 loop: the binding signal (Cy5 intensity) stood at 6.39. On the same count and under the same terms, the figure for hsa-mir-6884 loop is 6.37.
